We go through one substance from publication doi:10.1101/2024.12.25.630315 (bioRxiv, 2024).

The target in test [1] is T1, Nectin-4 (Homo sapiens, UniProt Q96NY8).
T1 construct: host or cells: HT1376, SCaBER, T24, RT112, UC9, UC14 urothelial carcinoma cells; HT1376 xenografts in NSG mice
T1 sequence (Q96NY8 32-510): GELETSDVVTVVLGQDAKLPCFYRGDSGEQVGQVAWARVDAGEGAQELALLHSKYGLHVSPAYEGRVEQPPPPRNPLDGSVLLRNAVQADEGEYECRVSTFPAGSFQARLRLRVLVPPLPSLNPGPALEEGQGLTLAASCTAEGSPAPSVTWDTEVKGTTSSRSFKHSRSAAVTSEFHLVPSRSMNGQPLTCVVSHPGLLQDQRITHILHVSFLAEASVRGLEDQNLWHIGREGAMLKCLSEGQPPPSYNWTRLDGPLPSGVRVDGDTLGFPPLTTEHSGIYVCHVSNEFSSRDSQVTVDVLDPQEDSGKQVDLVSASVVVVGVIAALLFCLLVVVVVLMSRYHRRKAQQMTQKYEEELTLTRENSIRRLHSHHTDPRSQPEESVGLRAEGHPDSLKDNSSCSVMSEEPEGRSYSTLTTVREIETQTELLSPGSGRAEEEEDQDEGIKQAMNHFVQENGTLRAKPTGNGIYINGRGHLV
The test can be described thus: EV dose-time Nectin-4 pharmacodynamics by [^68Ga]AJ647 PET, HT1376 tumors. The class given is in vivo, mouse. The procedure: Mice with tumor volume of ~100–150 mm^3 were injected with ~[…] (7.4 MBq) of [^68Ga]AJ647 in […] of 5% ethanol in saline intravenously and anesthetized under 2.5% isoflurane. PET-CT images were acquired at 60 minutes after radiotracer injection at 5 min/bed in an ARGUS small-animal PET/CT scanner (Sedecal, Madrid, Spain) as described (n=3 unless otherwise noted). PET-MR images were acquired on a simultaneous 7T Bruker PET-MR scanner. Dynamic imaging was conducted to evaluate pharmacokinetics of [^68Ga]AJ647. [^68Ga]AJ647 was injected (with help of catheter) after mice was anesthetized under 2.5% isoflurane on the equipment bed. All PET data were reconstructed using the two-dimensional ordered subsets-expectation maximization algorithm (2D-OSEM) and corrected for radioactive decay and dead time. The SUV values were calculated by finding percent of injected activity (%IA) based on a calibration factor obtained from a known radioactive quantity, then normalizing by mice weight. Amide software was used to derive SUV values by drawing region of interest to closely fit tumors. For change in accessible Nectin-4 levels following EV treatment, ΔSUV was calculated by subtracting baseline (pre-treatment) uptake from post-therapy uptake of [^68Ga]AJ647. Target engagement was quantified by normalizing this change by initial SUV in same subject controls. Image fusion, visualization, and 3D rendering were accomplished using Amira 2020.3.1® (FEI, Hillsboro, OR). The dose-time pharmacodynamics of Nectin-4 following EV treatment was studied at doses 6, 9 and 15 mpk. Experiment involving PET imaging was performed first. Male NSG mice were inoculated with 4 million HT1376 cells at day 0. On day 23 (average tumor volume=150±30 mm^3), mice were randomized to receive either saline, or a single dose of 6, 9 or 15 mpk EV intravenously (n=3 for each dose and n=2 for saline). Mice (n=2) from each dose group and saline were imaged on day 1, 3 and 6 following EV treatment. Once PET imaging results were analyzed, ex vivo distribution experiment was performed with n=16–18 for each dose and n=10 for saline. Treated mice (n=8–9 per dose per time-point) along with saline controls (n=5 per time-point) were sacrificed on day 1 and day 6. Biodistribution studies were performed at 60-minute after [68Ga]AJ647 injection as described above.

Test [2] concerns the target T1, Nectin-4. The test can be described thus: [^68Ga]AJ647 binding to SCaBER cells with and without EV. Conditions: SCaBER cells (Nectin-4 positive); EV 60 nM for 15 min; P<0.0001.

Regarding enfortumab vedotin [EV], the “Nectin-4 engagement by EV ([^68Ga]AJ647 PET tumor uptake)” value with Nectin-4 [1] (day 1, all EV doses (6, 9, 15 mg/kg single i.v.)) was “full occupancy”; in the test with Nectin-4 [1] (day 3, 6 mg/kg) it was “increase in [^68Ga]AJ647 uptake”; with Nectin-4 [1] (day 3, 9 and 15 mg/kg) it was “sustained target engagement”; in the test with Nectin-4 [1] (day 6, 6 mg/kg), “significant increase in [^68Ga]AJ647 uptake”; in the test with Nectin-4 [1] (day 6, 9 mg/kg), “partial engagement”; with Nectin-4 [1] (day 6, 15 mg/kg), “persistent high-level engagement”. In addition, the “effect of EV on [^68Ga]AJ647 binding” value with Nectin-4 [2] is reported as “significantly reduced”.
